Data taken from US12552834 (MIT, dated 2026).
Numbering of substitutions follows the chain as printed. Where two headings read alike, the source gives them in different places.

What was measured:
[1] = molecular target: T1, ENAH EVH1 domain (monomeric, wild type) (human, UniProt Q03173 1-111 (mouse entry)); experiment: BLI, steady state; SUMO-peptide immobilised, EVH1 monomer in solution; Table 2 (MassTitr hit validation), not the Table 3 truncation series
T1 construct: ENAH residue numbers in the text count from the Met at position 25 of this entry; also called ENAH EVH1 WT; Mena EVH1 WT
Protocol: (§1) All BLI experiments were performed with 2 replicates on an Octet Red96 instrument (ForteBio). […] The loaded tips were immersed in a solution of ENAH EVH1 domain at a relevant dilution series in BLI buffer at an orbital shake speed of 1000 rpm and run until the binding signal plateaued. ENAH-bound tips were subsequently placed into BLI buffer only for dissociation and run until the binding signal plateaued. K_D values were obtained through steady state analysis. […] The association phases were then fit to a one-phase binding model in Prism and the equilibrium steady-state binding signal values from that fit were plotted against ENAH concentration and fit to a single-site specific binding model in Prism to obtain dissociation constants. Errors reported are the standard deviation of two replicates.

[2] = molecular target: T1, ENAH EVH1 domain (monomeric, wild type); experiment: BLI, steady state; SUMO-peptide immobilised, EVH1 monomer in solution
Protocol: as §1

[3] = molecular target: T1, ENAH EVH1 domain (monomeric, wild type); experiment: BLI dissociation phase, immobilised SUMO-peptide, ENAH EVH1 domain in solution
[4] = molecular target: T1, ENAH EVH1 domain (monomeric, wild type); experiment: BLI
Protocol: as §1

[5] = molecular target: T2, ENAH EVH1 domain with Arg47 mutated to Ala (human, UniProt Q03173 1-111 (mouse entry)); experiment: BLI, steady state; SUMO-peptide immobilised, EVH1 monomer in solution
T2 construct: also called ENAH R47A; ENAH EVH1 R47A
Protocol: as §1

[6] = molecular target: T1, ENAH EVH1 domain (monomeric, wild type); experiment: as above; remark: listed apart in the source
Protocol: as §1

[7] = molecular target: T1, ENAH EVH1 domain (monomeric, wild type); experiment: as above; remark: listed apart in the source
Protocol: as §1

[8] = molecular target: T1, ENAH EVH1 domain (monomeric, wild type); experiment: BLI, monomeric EVH1
[9] = molecular target: T2, ENAH EVH1 domain with Arg47 mutated to …; experiment: BLI, steady state; SUMO-peptide immobilised, EVH1 monomer in solution; remark: listed apart in the source
Protocol: as §1

[10] = molecular target: T1, ENAH EVH1 domain (monomeric, wild type); experiment: as above; remark: listed apart in the source
Protocol: as §1

[11] = molecular target: T1, ENAH EVH1 domain (monomeric, wild type); experiment: ITC
Protocol: (§2) ITC experiments were performed with two replicates using a VP-ITC microcalorimeter (MicroCal LLC). To prepare samples for ITC, 2.5 mL of 100 µM ENAH EVH1 domain and 1 mL of 800 µM-1.2 mM of SUMO-peptide fusions were dialyzed against 2 µL of ITC Buffer (20 mM Hepes pH 7.6, 150 mM NaCl, 1 mM TCEP) at 4° C. overnight. The concentrations of proteins were remeasured after dialysis on the day of experiment. SUMO-peptide was titrated into ENAH EVH1 domain at 25° C. Data analysis and curve fitting were performed with the Origin 7.0 software (OriginLab).

[12] = molecular target: T1, ENAH EVH1 domain (monomeric, wild type); experiment: ITC, SUMO-peptide titrated into ENAH EVH1 domain at 25 °C
Protocol: as §2

T2 sequence (Q03173 other isoform, or with tags, fused parts or gaps limits assumed, stated change not applied): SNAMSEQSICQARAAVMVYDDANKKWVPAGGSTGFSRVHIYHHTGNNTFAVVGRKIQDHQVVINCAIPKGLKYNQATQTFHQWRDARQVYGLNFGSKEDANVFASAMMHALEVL
T1 sequence (Q03173 other isoform, or with tags, fused parts or gaps limits assumed): as the sequence (Q03173 other isoform, or with tags, fused parts or gaps limits assumed, stated change not applied) above, with A50R counted along it

B1: ABI1 36mer peptide (peptide)
peptide: MAGGLNDIFEAQKIEWHEDTGGSSHHHHHHGSGSGSDSEVNQEAKPEVKPEVKPETHINLKVSDGSSEIFFKIKKTTPLRRLMEAFAKRQGKEMDSLTFLYDGIEIQADQTPEDLDMEDNDIIEAHREQIGGSGSGFDDFPPPPPPPPVDYEDEEAAVVQYNDPYADGDPAW
modifications: biotinylated (BAP tag)
- Kd [1]: 2.44 µM
- Kd [2]: 4.01 µM

B2: ABI1-LPP fusion peptide (designed binder)
peptide: MAGGLNDIFEAQKIEWHEDTGGSSHHHHHHGSGSGSDSEVNQEAKPEVKPEVKPETHINLKVSDGSSEIFFKIKKTTPLRRLMEAFAKRQGKEMDSLTFLYDGIEIQADQTPEDLDMEDNDIIEAHREQIGGSGSGFDDFPPPPPPPPVDYEDLPSISGNFPPPPPL
modifications: biotinylated (BAP tag)
notes: Engineered peptide, tested as a SUMO fusion in BLI
- koff [3]: 0.33 s⁻¹
- Kd [4]: 0.76 µM

B3: Zyxin 36-mer peptide (peptide)
peptide: MAGGLNDIFEAQKIEWHEDTGGSSHHHHHHGSGSGSDSEVNQEAKPEVKPEVKPETHINLKVSDGSSEIFFKIKKTTPLRRLMEAFAKRQGKEMDSLTFLYDGIEIQADQTPEDLDMEDNDIIEAHREQIGGSGSGALGGAFPPPPPPIEESFPPAPLEEEIFPSPPPPPEE
modifications: biotinylated (BAP tag)
notes: Tested as a biotinylated BAP-6xHis-SUMO-peptide fusion
- Kd [5]: 54.5 µM
- Kd [6]: 4.79 µM
- Kd [7]: 4.79 µM

B4: TENM1 36-mer peptide (peptide)
peptide: MAGGLNDIFEAQKIEWHEDTGGSSHHHHHHGSGSGSDSEVNQEAKPEVKPEVKPETHINLKVSDGSSEIFFKIKKTTPLRRLMEAFAKRQGKEMDSLTFLYDGIEIQADQTPEDLDMEDNDIIEAHREQIGGSGSGGSTQDVQSSPHNQFTFRPLPPPPPPPHACTCARKPP
modifications: biotinylated (BAP tag)
notes: Tested as a biotinylated BAP-6xHis-SUMO-peptide fusion; The text calls it TEN1; it contains both an FP4 and a CXC motif; also called TEN1
- Kd [7]: 62.9 µM
- Kd [8]: > 60 µM

B5: LPP Duplicated peptide (peptide)
peptide: MAGGLNDIFEAQKIEWHEDTGGSSHHHHHHGSGSGSDSEVNQEAKPEVKPEVKPETHINLKVSDGSSEIFFKIKKTTPLRRLMEAFAKRQGKEMDSLTFLYDGIEIQADQTPEDLDMEDNDIIEAHREQIGGSGSGKQPGGEGDFLPPPPPPLDDSSALPSISGNDDSSALPSISGNFPPPPPL
modifications: biotinylated (BAP tag)
notes: Engineered variant, tested as a SUMO fusion
- Kd [9]: 54.2 µM
- Kd [10]: 6.66 µM

B6: NHSL1 FP4 1 peptide (peptide)
peptide: MAGGLNDIFEAQKIEWHEDTGGSSHHHHHHGSGSGSDSEVNQEAKPEVKPEVKPETHINLKVSDGSSEIFFKIKKTTPLRRLMEAFAKRQGKEMDSLTFLYDGIEIQADQTPEDLDMEDNDIIEAHREQIGGSGSGADRSPFLPPPPPVTDCSQGSPLPHSPV
modifications: biotinylated (BAP tag)
notes: Truncation of the NHSL1 36mer that keeps the first FP4 motif, tested as a SUMO fusion
- Kd [9]: 99.1 µM
- Kd [10]: 48.7 µM

B7: LPP FP4 2 peptide (peptide)
peptide: MAGGLNDIFEAQKIEWHEDTGGSSHHHHHHGSGSGSDSEVNQEAKPEVKPEVKPETHINLKVSDGSSEIFFKIKKTTPLRRLMEAFAKRQGKEMDSLTFLYDGIEIQADQTPEDLDMEDNDIIEAHREQIGGSGSGPPLDDSSALPSISGNFPPPPPL
modifications: biotinylated (BAP tag)
notes: Truncation of the LPP 36mer that keeps the second FP4 motif, tested as a SUMO fusion
- Kd [9]: 75.2 µM
- Kd [10]: 28.3 µM

B8: LPP Minimal peptide (peptide)
peptide: MAGGLNDIFEAQKIEWHEDTGGSSHHHHHHGSGSGSDSEVNQEAKPEVKPEVKPETHINLKVSDGSSEIFFKIKKTTPLRRLMEAFAKRQGKEMDSLTFLYDGIEIQADQTPEDLDMEDNDIIEAHREQIGGSGSGGDFLPPPPPPLGGGSGSGGGSGSFPPPPPL
modifications: biotinylated (BAP tag)
notes: as for B5
- Kd [9]: 124 µM
- Kd [10]: 15.8 µM
- fold reduction in affinity relative to the LPP 36-mer [4]: ~4 fold

B9: NHSL1 36mer peptide (peptide)
peptide: MAGGLNDIFEAQKIEWHEDTGGSSHHHHHHGSGSGSDSEVNQEAKPEVKPEVKPETHINLKVSDGSSEIFFKIKKTTPLRRLMEAFAKRQGKEMDSLTFLYDGIEIQADQTPEDLDMEDNDIIEAHREQIGGSGSGADRSPFLPPPPPVTDCSQGSPLPHSPVFPPPPPEAL
modifications: biotinylated (BAP tag)
notes: Tested as a BAP-6xHis-SUMO-peptide fusion in BLI and ITC
- -TΔS [11]: -0.28 kcal/mol
- ΔG [11]: -6.83 kcal/mol
- ΔH [11]: -6.55 kcal/mol
- Kd [5]: 55.4 µM
- Kd [6]: 8.56 µM
- Kd [9]: 55.4 µM
- Kd [10]: 8.56 µM
- Kd [7]: 8.56 µM
- Kd [12]: 9.8 µM

B10: SUMO-ActA (ActA 36-mer peptide fused to SUMO) (peptide)
peptide: MAGGLNDIFEAQKIEWHEDTGGSSHHHHHHGSGSGSDSEVNQEAKPEVKPEVKPETHINLKVSDGSSEIFFKIKKTTPLRRLMEAFAKRQGKEMDSLTFLYDGIEIQADQTPEDLDMEDNDIIEAHREQIGGGFNAPATSEPSSFEFPPPPTEDELEIIRETASSLDS
modifications: biotinylated (BAP tag)
notes: Control peptide used in BLI and ITC; also called ActA peptide
- -TΔS [11]: -5.21 kcal/mol
- ΔG [11]: -6.99 kcal/mol
- ΔH [11]: -1.78 kcal/mol
- Kd [5]: 8.02 µM
- Kd [6]: 5.21 µM
- Kd [7]: 5.21 µM
- Kd [12]: 7.41 µM

B11: FP8 peptide (FPPPPPPPP) (peptide)
peptide: MAGGLNDIFEAQKIEWHEDTGGSSHHHHHHGSGSGSDSEVNQEAKPEVKPEVKPETHINLKVSDGSSEIFFKIKKTTPLRRLMEAFAKRQGKEMDSLTFLYDGIEIQADQTPEDLDMEDNDIIEAHREQIGGSGSGFPPPPPPPP
modifications: biotinylated (BAP tag)
notes: ABI1 truncation, tested as a SUMO fusion
- fold decrease in affinity on truncation of the flank [4]: 3 fold
- Kd [2]: 28.5 µM

B12: FP4S4 peptide (FPPPPSSSS) (peptide)
peptide: B11 peptide with P142S, P143S, P144S, P145S
modifications: biotinylated (BAP tag)
notes: Tested as a SUMO fusion
- fold reduction in affinity against … [4]: ~4 fold
- Kd [2]: 114 µM

B13: ABI1 a peptide (peptide)
peptide: MAGGLNDIFEAQKIEWHEDTGGSSHHHHHHGSGSGSDSEVNQEAKPEVKPEVKPETHINLKVSDGSSEIFFKIKKTTPLRRLMEAFAKRQGKEMDSLTFLYDGIEIQADQTPEDLDMEDNDIIEAHREQIGGSGSGFDDFPPPPPPPPVDYED
modifications: biotinylated (BAP tag)
notes: as for B11
- Kd [2]: 5.21 µM

B14: Minimum General peptide (peptide)
peptide: MAGGLNDIFEAQKIEWHEDTGGSSHHHHHHGSGSGSDSEVNQEAKPEVKPEVKPETHINLKVSDGSSEIFFKIKKTTPLRRLMEAFAKRQGKEMDSLTFLYDGIEIQADQTPEDLDMEDNDIIEAHREQIGGSGSGDFLPPPPGGGGGGSGSGGGSGSFPPPPGG
modifications: biotinylated (BAP tag)
notes: Engineered peptide, tested as a SUMO fusion
- Kd [9]: 86.9 µM
- Kd [10]: 92.6 µM

B15: PCARE 36-residue peptide (PCARE813-848) (peptide)
peptide: MAGGLNDIFEAQKIEWHEDTGGSSHHHHHHGSGSGSDSEVNQEAKPEVKPEVKPETHINLKVSDGSSEIFFKIKKTTPLRRLMEAFAKRQGKEMDSLTFLYDGIEIQADQTPEDLDMEDNDIIEAHREQIGGSGSGAAKSEELSCEMEGNLEHLPPPPMEVLMDKSFASLES
modifications: biotinylated (BAP tag)
notes: Tested in BLI as a biotinylated BAP-6xHis-SUMO-peptide fusion; also called PCARE 36-mer
- Kd [5]: 0.331 µM
- Kd [6]: 0.192 µM
- Kd [7]: 0.192 µM

B16: LPP 36mer peptide (peptide)
peptide: MAGGLNDIFEAQKIEWHEDTGGSSHHHHHHGSGSGSDSEVNQEAKPEVKPEVKPETHINLKVSDGSSEIFFKIKKTTPLRRLMEAFAKRQGKEMDSLTFLYDGIEIQADQTPEDLDMEDNDIIEAHREQIGGSGSGKQPGGEGDFLPPPPPPLDDSSALPSISGNFPPPPPL
modifications: biotinylated (BAP tag)
notes: as for B9
- -TΔS [11]: -0.504 kcal/mol
- ΔG [11]: -6.94 kcal/mol
- ΔH [11]: -6.44 kcal/mol
- Kd [5]: 61.9 µM
- Kd [6]: 4.03 µM
- Kd [9]: 61.9 µM
- Kd [10]: 4.03 µM
- Kd [7]: 4.03 µM
- koff [3]: 1.8 s⁻¹
- Kd [12]: 8.13 µM

B17: NHSL1 FP4 2 peptide (peptide)
peptide: MAGGLNDIFEAQKIEWHEDTGGSSHHHHHHGSGSGSDSEVNQEAKPEVKPEVKPETHINLKVSDGSSEIFFKIKKTTPLRRLMEAFAKRQGKEMDSLTFLYDGIEIQADQTPEDLDMEDNDIIEAHREQIGGSGSGPVTDCSQGSPLPHSPVFPPPPPEAL
modifications: biotinylated (BAP tag)
notes: Truncation of the NHSL1 36mer that keeps the second FP4 motif, tested as a SUMO fusion
- Kd [9]: 51 µM
- Kd [10]: 24.4 µM

B18: FDDFP8 peptide (peptide)
peptide: MAGGLNDIFEAQKIEWHEDTGGSSHHHHHHGSGSGSDSEVNQEAKPEVKPEVKPETHINLKVSDGSSEIFFKIKKTTPLRRLMEAFAKRQGKEMDSLTFLYDGIEIQADQTPEDLDMEDNDIIEAHREQIGGSGSGFDDFPPPPPPPP
modifications: biotinylated (BAP tag)
notes: as for B11
- fold decrease in affinity on truncation of the flank [4]: 2.5 fold
- Kd [2]: 10.1 µM

B19: NHSL1 Duplicated peptide (peptide)
peptide: MAGGLNDIFEAQKIEWHEDTGGSSHHHHHHGSGSGSDSEVNQEAKPEVKPEVKPETHINLKVSDGSSEIFFKIKKTTPLRRLMEAFAKRQGKEMDSLTFLYDGIEIQADQTPEDLDMEDNDIIEAHREQIGGSGSGADRSPFLPPPPPVTDCSQGSPLPHSPVPVTDCSQGSPLPHSPVFPPPPPEAL
modifications: biotinylated (BAP tag)
notes: as for B5
- Kd [9]: 70 µM
- Kd [10]: 18.4 µM

B20: LPP FP4 1 peptide (peptide)
peptide: MAGGLNDIFEAQKIEWHEDTGGSSHHHHHHGSGSGSDSEVNQEAKPEVKPEVKPETHINLKVSDGSSEIFFKIKKTTPLRRLMEAFAKRQGKEMDSLTFLYDGIEIQADQTPEDLDMEDNDIIEAHREQIGGSGSGKQPGGEGDFLPPPPPPLDDSSALPSISGN
modifications: biotinylated (BAP tag)
notes: Truncation of the LPP 36mer that keeps the first FP4 motif, tested as a SUMO fusion
- Kd [9]: 61.3 µM
- Kd [10]: 12.4 µM
